# Patent US20170042969A1 (JULIUS MAXIMILIANS UNIVERSIT T W RZBURG, published 2017)
# Target: ornithine decarboxylase (ODC) present in Xenopus laevis oocytes
# Experiment: cell-based or functional assay
IC50 for down-regulation of hSGLT1-mediated AMG uptake in oocytes (intracellular AMG <10 µM) [nM],change of affinity for down-regulation of hSGLT1 when intracellular AMG is raised to 250 µM [fold],IC50 for down-regulation of hSGLT1 in oocytes at about 0.25 mM intracellular AMG [nM],IC50 for inhibition of SGLT1-mediated AMG uptake in oocytes without injection of AMG [nM],"IC50 without injection of AMG, against QSP [times]",increase of affinity at ~0.25 mM intracellular AMG against low intracellular AMG [fold],Binder
71,8,,,,,"hRS1-Reg (regulatory domain of human RS1, amino acids 16-98 of hRS1), wildtype (other, not shown: small tags and cut ends) SSGQSPDVGNPMSLARSVSASVCPIKPSDSDRIEPKAVKALKASAEFQLNSEKKEHLSLQDLSDHASSADHAPTDQSPAMPMQ"
,,0.0002,7.9,~40,> 15000,QEP [QEP (glutamine-glutamic acid-proline tripeptide)]
